Test in all cases: purified protein
What all share (format): biochemical, Pseudomonas putida

For data set [1], the system named is T1, CC(O)(CC(=O)C(=O)O)C(=O)O.
T1 construct: recombinant from pT7-7, expressed in E. coli; chelex-treated apo-enzyme reconstituted with MgCl2
To be noted: without Pi, 1 mM MgCl2, 0.1 M HEPES pH 8.0, 25 °C, racemic substrate.

A further data set relates to T2, O=C(O)CC(=O)C(=O)O.
T2 construct: recombinant from pT7-7, expressed in E. coli; chelex-treated apo-enzyme reconstituted with MgCl2
To be noted: without Pi, 1 mM MgCl2, 0.1 M HEPES pH 8.0, 25 °C.

Data set [2] has as its system T3, O=C(O)CC(O)(CC(=O)C(=O)O)C(=O)O.
T3 construct: recombinant from pT7-7, expressed in E. coli; chelex-treated apo-enzyme reconstituted with MgCl2
The conditions noted are these: without Pi, 1 mM MgCl2, 0.1 M HEPES pH 8.0, 25 °C, racemic substrate.

The term Km denotes the concentration of substrate that gives half-maximal velocity. One may read the kcat as the number of substrate molecules converted per active site and unit of time at saturation. One may read the kcat/Km as the turnover number divided by the Michaelis constant. Take “HMG/CHA aldolase (Pseudomonas putida F1; R195A)”: in data set [1], the Km worked out at 1370 ± 58 µM, the kcat came to 6.72 ± 0.19 s⁻¹ and the kcat/Km was found to be 4910 ± 250 M⁻¹ s⁻¹.

On to “HMG/CHA aldolase (Pseudomonas putida F1; H75A)”, for which, in data set [1], the Km stood at 389 ± 22 µM, the kcat worked out at 22.3 ± 0.75 s⁻¹ and the kcat/Km is 57300 ± 3800 M⁻¹ s⁻¹.

With “HMG/CHA aldolase (Pseudomonas putida F1; G144V)”, in data set [1], the Km is 1390 ± 160 µM, the turnover number (kcat) amounted to 0.215 ± 0.015 s⁻¹ and the kcat/Km stood at 155 ± 21 M⁻¹ s⁻¹.

For the substance “HMG/CHA aldolase (Pseudomonas putida F1; T145A)”, in data set [1], the Km came to 1080 ± 88 µM, the kcat is 0.889 ± 0.057 s⁻¹ and the kcat/Km was found to be 823 ± 85 M⁻¹ s⁻¹.

In the case of “HMG/CHA aldolase (Pseudomonas putida F1)”, the figures for the Km (with O=C(O)CC(=O)C(=O)O; in data set [2]; in data set [1]) were 298 ± 30 µM, 15.0 ± 1.3 µM and 188 ± 11 µM, respectively. The values for the kcat (with O=C(O)CC(=O)C(=O)O; in data set [2]; in data set [1]) were 1.86 ± 0.18 s⁻¹, 13.4 ± 0.31 s⁻¹ and 15.6 ± 0.54 s⁻¹, respectively. Moreover, the kcat/Km in the data set with O=C(O)CC(=O)C(=O)O turned out to be 6240 ± 870 M⁻¹ s⁻¹; in data set [2], 893000 ± 80000 M⁻¹ s⁻¹; in data set [1], 83000 ± 5600 M⁻¹ s⁻¹.

As to “HMG/CHA aldolase (Pseudomonas putida F1; R40A)”, in data set [1], the Km turned out to be 304 ± 27 µM, the kcat is 6.7 ± 0.14 s⁻¹ and the kcat/Km was 22000 ± 2100 M⁻¹ s⁻¹.

For the substance “HMG/CHA aldolase (Pseudomonas putida F1; R123K)”, in data set [1], the Km was 3210 ± 210 µM, the kcat worked out at 0.086 ± 0.0046 s⁻¹ and the kcat/Km was found to be 26.7 ± 2.3 M⁻¹ s⁻¹.

As for “HMG/CHA aldolase (Pseudomonas putida F1; K147A)”, in data set [1], the Km was 2010 ± 210 µM, the kcat was found to be 0.014 ± 0.00039 s⁻¹ and the kcat/Km turned out to be 6.97 ± 0.75 M⁻¹ s⁻¹.

As to “HMG/CHA aldolase (Pseudomonas putida F1; N71A)”, in data set [1], the Km is 796 ± 70 µM, the kcat came out at 0.014 ± 0.0011 s⁻¹ and the kcat/Km was 17.6 ± 2.1 M⁻¹ s⁻¹.

The values above are taken from article PMC5065237, “Investigation into the Mode of Phosphate Activation in the 4-Hydroxy-4-Methyl-2-Oxoglutarate/4-Carboxy-4-Hydroxy-2-Oxoadipate Aldolase from Pseudomonas putida F1” (PLoS ONE, 2016).
